These results are taken from patent publication US9814672B2, “Echogenic vehicle for clinical delivery of plasminogen activator and other fibrin-binding therapeutics to thrombi” (priority 2007, dated 2017).

Like-named read-outs stand apart in the source and are kept apart here.

For test [1], the target named is T1, fibrin (Homo sapiens, UniProt P02671+P02675+P02679).
T1 construct: purchased Calbiochem (EMD Biosciences, Inc., La Jolla, Calif.)
T1 sequence (P02671 36-629 limits assumed): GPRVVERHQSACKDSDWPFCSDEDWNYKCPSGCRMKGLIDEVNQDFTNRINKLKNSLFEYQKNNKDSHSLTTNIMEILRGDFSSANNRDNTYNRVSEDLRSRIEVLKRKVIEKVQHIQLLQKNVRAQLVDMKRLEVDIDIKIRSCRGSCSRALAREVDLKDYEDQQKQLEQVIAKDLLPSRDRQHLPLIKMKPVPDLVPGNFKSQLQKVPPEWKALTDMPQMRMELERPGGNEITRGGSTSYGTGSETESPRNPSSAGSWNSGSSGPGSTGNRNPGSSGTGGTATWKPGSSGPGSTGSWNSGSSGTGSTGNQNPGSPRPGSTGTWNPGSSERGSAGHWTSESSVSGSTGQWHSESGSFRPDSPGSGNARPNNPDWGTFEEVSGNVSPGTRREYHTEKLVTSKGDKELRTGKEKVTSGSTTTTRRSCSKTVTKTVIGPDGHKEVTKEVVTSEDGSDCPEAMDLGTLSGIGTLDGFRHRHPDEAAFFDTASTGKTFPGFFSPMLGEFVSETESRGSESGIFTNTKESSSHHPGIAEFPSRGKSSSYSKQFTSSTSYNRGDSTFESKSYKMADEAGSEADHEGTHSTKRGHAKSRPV
T1 sequence (P02675 45-491 limits assumed): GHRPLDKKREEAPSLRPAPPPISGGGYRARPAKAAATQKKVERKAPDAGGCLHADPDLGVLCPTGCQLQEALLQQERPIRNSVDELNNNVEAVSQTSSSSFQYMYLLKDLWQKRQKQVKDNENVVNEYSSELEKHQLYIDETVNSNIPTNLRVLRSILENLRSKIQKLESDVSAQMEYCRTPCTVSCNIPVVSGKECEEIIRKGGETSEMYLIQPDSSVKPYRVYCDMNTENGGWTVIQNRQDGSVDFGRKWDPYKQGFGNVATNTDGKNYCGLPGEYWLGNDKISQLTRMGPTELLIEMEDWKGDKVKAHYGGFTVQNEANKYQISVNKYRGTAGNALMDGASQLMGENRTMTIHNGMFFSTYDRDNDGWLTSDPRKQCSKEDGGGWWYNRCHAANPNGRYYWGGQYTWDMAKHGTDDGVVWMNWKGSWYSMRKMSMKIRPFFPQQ
T1 sequence (P02679 27-437 isoform P02679-2 limits assumed): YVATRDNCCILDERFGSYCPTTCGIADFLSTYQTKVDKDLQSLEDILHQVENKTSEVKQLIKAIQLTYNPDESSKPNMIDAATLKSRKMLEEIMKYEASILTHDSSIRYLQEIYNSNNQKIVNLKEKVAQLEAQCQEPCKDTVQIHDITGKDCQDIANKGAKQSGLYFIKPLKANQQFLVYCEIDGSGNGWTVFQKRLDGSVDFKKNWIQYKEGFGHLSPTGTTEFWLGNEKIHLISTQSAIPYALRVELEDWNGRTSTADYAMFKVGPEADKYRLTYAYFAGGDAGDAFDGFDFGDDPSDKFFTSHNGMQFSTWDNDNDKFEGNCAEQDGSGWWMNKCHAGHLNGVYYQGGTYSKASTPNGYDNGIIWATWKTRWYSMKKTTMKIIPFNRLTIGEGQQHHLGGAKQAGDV
The experiment in a line: Solid-phase fibrin-tPA activity assay (SOFIA-tPA), Scatchard analysis. As to conditions: 37° C., read-out: KD of fibrin binding. The protocol: tPA-binding to fibrin was tested using a modification of the solid-phase fibrin-tPA activity assay (SOFIAtPA) developed by Angles-Cano (1986). This method combines a quantitative enzyme-linked immunosorbent assay (ELISA) technique, which enables calculation of ligand binding affinities, with a chromogenic measurement of enzyme specific activity. The latter provides quantitation of tPA bound to fibrin in the microtiter well, which permits the determination of binding affinities and immobilized fibrin concentration by classic Scatchard analysis.
Nunc Maxisorb microtiter plates were coated overnight at 4° C. with human fibrinogen (Calbiochem; 2.5.tg in 50 p.l 0.05 M sodium bicarbonate, pH 9.6, per well). Background wells were left uncoated. […]
About 200 μl of substrate-zymogen reagent (0.33 μM plasminogen+0.33 mM D-Val-Leu-Lys-p-nitroanilide in 0.02 M PBS, pH 7.3, with 0.1 M sodium chloride) was added to each sample well and to 12 additional wells (standard wells). […] The plates were then read at 405 nm in a Coulter microplate reader. Based on the response of the standards and the net OD of samples corrected for background absorbance in albumin-coated wells, concentrations of bound active tPA were calculated; Scatchard analyses were then performed and binding affinities determined.

Test [2] deals with T1, fibrin. The conditions noted are these: SOFIA-tPA assay; read-out: KD of tPA-fibrin binding reported by Angles-Cano (1986); cited from earlier work.
The nature of test [3]: tPA enzyme activity after PPACK inactivation, paranitroanilide-substrate method. In kind it is biochemical. As to conditions: S.E., n=3. The protocol: Reconstituted tPA was incubated with a fivefold molar excess of PPACK in 0.2 M L-arginine in 0.05M phosphate buffer, pH 7.2, with 0.01% Tween 20 for 1 hour at room temperature, followed by dialysis against reaction buffer to remove unreacted PPACK. A control preparation was carried through the procedure without PPACK and all procedures involving PPACK were protected from light. Enzyme activity in PPACK-treated and control tPA preparations was measured with a […] paranitroanilide-substrate method (Ranby and Wallen, 1981).

The target of test [4] is T1, fibrin. The experiment in a line: Two-stage fibrin pad ELISA, Scatchard and van't Hoff analysis. The conditions noted are these: undiluted fresh-frozen rabbit serum, 37° C.; read-out: binding affinity (KD) in serum. (In general: ELISA stands for enzyme-linked immunosorbent assay.)

Usually Kd stands for the free concentration of one partner at which half of the binding sites on the other are occupied at equilibrium, for simple one-to-one binding.

Regarding “tPA: Recombinant tissue-plasminogen activator (Activase®, Genentech Inc.), used as the thrombolytic agent [reference compound]”, the Kd in the test with fibrin [1] was 2.61 nM; with fibrin [2] it was 1.4 ± 2 nM.

As for “tPA(P): Human recombinant tPA (Activase®) irreversibly inhibited with D-phe-L-pro-L-arg-chloromethyl ketone (PPACK)”, the “Percent Starting Activity” value in test [3] is on record as 4.7 ± 2.9%. Further, the Kd with fibrin [4] is 9.52 nM.
